Reference: patent US20250297021A1
Several values for one entry are separate records, joined by “and”; a condition that tells them apart may be missing. Identical values can stand only once.

How the values were obtained:
[1] = biological target: human BCMA-His protein (human) (UniProt Q02223); experiment: competition ELISA vs hAPRIL-biotin on coated human BCMA; antibody 0.14 nM
[2] = biological target: human BCMA-His protein (human) (UniProt Q02223); experiment: competition ELISA vs hAPRIL-biotin on coated human BCMA; antibody 0.41 nM
[3] = biological target: human BCMA-His protein (human) (UniProt Q02223); experiment: competition ELISA vs hAPRIL-biotin on coated human BCMA; antibody 1.23 nM
[4] = biological target: human BCMA-His protein (human) (UniProt Q02223); experiment: competition ELISA vs hAPRIL-biotin on coated human BCMA; antibody 3.70 nM
[5] = biological target: human BCMA-His protein (human) (UniProt Q02223); experiment: competition ELISA vs hAPRIL-biotin on coated human BCMA; antibody 11.11 nM
[6] = biological target: human BCMA-His protein (human) (UniProt Q02223); experiment: competition ELISA vs hAPRIL-biotin on coated human BCMA; antibody 33.33 nM
[7] = biological target: human BCMA-His protein (human) (UniProt Q02223); experiment: competition ELISA vs hAPRIL-biotin on coated human BCMA; antibody 100.00 nM
[8] = biological target: human BCMA on cells (human) (UniProt Q02223); experiment: FACS, H929 cells
Chain of human BCMA on cells (human) (Q02223 whole entry): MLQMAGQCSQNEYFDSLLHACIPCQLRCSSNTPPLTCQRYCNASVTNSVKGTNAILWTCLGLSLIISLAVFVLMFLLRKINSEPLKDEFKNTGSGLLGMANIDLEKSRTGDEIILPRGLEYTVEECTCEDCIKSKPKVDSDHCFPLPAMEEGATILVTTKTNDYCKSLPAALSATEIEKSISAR

[9] = biological target: human BCMA on cells (human) (UniProt Q02223); experiment: FACS, U266 cells
[10] = biological target: human BCMA on cells (human) (UniProt Q02223); experiment: FACS, H929 cells; remark: listed apart in the source
[11] = biological target: human BCMA on cells (human) (UniProt Q02223); experiment: FACS, U266 cells; remark: listed apart in the source
[12] = biological target: human BCMA on cells (human) (UniProt Q02223); experiment: FACS, RPMI8226 cells
[13] = biological target: human BCMA on cells (human) (UniProt Q02223); experiment: FACS, RPMI8226 cells; remark: listed apart in the source
[14] = biological target: human BCMA on cells (human) (UniProt Q02223); experiment: FACS, Flp-in CHO-human BCMA cells
[15] = biological target: monkey BCMA on cells (monkey); experiment: FACS, Flp-in CHO-monkey BCMA cells
[16] = biological target: human BCMA-His protein (human) (UniProt Q02223); experiment: ELISA, human BCMA-His coated; Ab 1 nM
[17] = biological target: human BCMA-His protein (human) (UniProt Q02223); experiment: ELISA, human BCMA-His coated; Ab 10 nM
[18] = biological target: monkey BCMA-His protein (monkey); experiment: ELISA, monkey BCMA-His coated; Ab 1 nM
Chain of monkey BCMA-His protein (monkey) (A0A2K5 entry or part of it limits assumed): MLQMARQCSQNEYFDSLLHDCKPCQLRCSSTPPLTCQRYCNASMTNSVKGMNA

[19] = biological target: human BCMA-His protein (human) (UniProt Q02223); experiment: ELISA, human BCMA-His coated; Ab 10 nM; remark: listed apart in the source
[20] = biological target: monkey BCMA-His protein (monkey); experiment: ELISA, monkey BCMA-His coated; Ab 1 nM; remark: listed apart in the source
[21] = biological target: human BCMA-His protein (human) (UniProt Q02223); experiment: ELISA, human BCMA-His coated; Ab 0.1 nM
[22] = biological target: human BCMA-His protein (human) (UniProt Q02223); experiment: ELISA, human BCMA-His coated; Ab 100 nM
[23] = biological target: monkey BCMA-His protein (monkey); experiment: ELISA, monkey BCMA-His coated; Ab 10 nM
[24] = biological target: monkey BCMA-His protein (monkey); experiment: ELISA, monkey BCMA-His coated; Ab 10 nM; remark: listed apart in the source
[25] = biological target: human BCMA-His protein (human) (UniProt Q02223); experiment: ELISA, human BCMA-His coated; Ab 0.01 nM
[26] = biological target: monkey BCMA-His protein (monkey); experiment: ELISA, monkey BCMA-His coated; Ab 0.1 nM
[27] = biological target: monkey BCMA-His protein (monkey); experiment: ELISA, monkey BCMA-His coated; Ab 100 nM
[28] = biological target: monkey BCMA-His protein (monkey); experiment: ELISA, monkey BCMA-His coated; Ab 0.1 nM; remark: listed apart in the source
[29] = biological target: monkey BCMA-His protein (monkey); experiment: ELISA, monkey BCMA-His coated; Ab 100 nM; remark: listed apart in the source
[30] = biological target: human BCMA-His protein (human) (UniProt Q02223); experiment: ELISA, human BCMA-His coated; Ab 0.001 nM
[31] = biological target: monkey BCMA-His protein (monkey); experiment: ELISA, monkey BCMA-His coated; Ab 0.01 nM
[32] = biological target: human BCMA-His protein (human) (UniProt Q02223); experiment: ELISA, human BCMA-His coated; Ab 0.0001 nM
[33] = biological target: monkey BCMA-His protein (monkey); experiment: ELISA, monkey BCMA-His coated; Ab 0.001 nM
[34] = biological target: human BCMA-His protein (human) (UniProt Q02223); experiment: ELISA, human BCMA-His coated; Ab 0.0001 nM; remark: listed apart in the source
[35] = biological target: monkey BCMA-His protein (monkey); experiment: ELISA, monkey BCMA-His coated; Ab 0.001 nM; remark: listed apart in the source
[36] = biological target: monkey BCMA-His protein (monkey); experiment: ELISA, monkey BCMA-His coated; Ab 0.0001 nM
[37] = biological target: monkey BCMA-His protein (monkey); experiment: ELISA, monkey BCMA-His coated; Ab 0.0001 nM; remark: listed apart in the source
[38] = biological target: human BCMA on cells (human) (UniProt Q02223); experiment: cell ELISA, Flp-inCHO-human BCMA cells; Ab 0.01 nM
[39] = biological target: human BCMA on cells (human) (UniProt Q02223); experiment: cell ELISA, Flp-inCHO-human BCMA cells; Ab 0.02 nM
[40] = biological target: human BCMA on cells (human) (UniProt Q02223); experiment: cell ELISA, Flp-inCHO-human BCMA cells; Ab 0.05 nM
[41] = biological target: human BCMA on cells (human) (UniProt Q02223); experiment: cell ELISA, Flp-inCHO-human BCMA cells; Ab 0.14 nM
[42] = biological target: human BCMA on cells (human) (UniProt Q02223); experiment: cell ELISA, Flp-inCHO-human BCMA cells; Ab 0.41 nM
[43] = biological target: human BCMA on cells (human) (UniProt Q02223); experiment: cell ELISA, Flp-inCHO-human BCMA cells; Ab 1.23 nM
[44] = biological target: human BCMA on cells (human) (UniProt Q02223); experiment: cell ELISA, Flp-inCHO-human BCMA cells; Ab 3.70 nM
[45] = biological target: human BCMA on cells (human) (UniProt Q02223); experiment: cell ELISA, Flp-inCHO-human BCMA cells; Ab 0.002 nM
[46] = biological target: human BCMA on cells (human) (UniProt Q02223); experiment: cell ELISA, Flp-inCHO-human BCMA cells; Ab 11.11 nM
[47] = biological target: human BCMA on cells (human) (UniProt Q02223); experiment: cell ELISA, Flp-inCHO-human BCMA cells; Ab 33.33 nM
[48] = biological target: human BCMA on cells (human) (UniProt Q02223); experiment: cell ELISA, Flp-inCHO-human BCMA cells; Ab 100.00 nM

Chain of human BCMA-His protein (human) (Q02223 1-54 limits assumed): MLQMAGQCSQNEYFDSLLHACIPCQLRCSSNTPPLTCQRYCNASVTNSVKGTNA

Substance: anti-hel-hIgG1 (antibody)
- OD450 [1]: 1.43 OD450 and 1.28 OD450 and 1.63 OD450
- OD450 [2]: 1.41 OD450 and 1.31 OD450 and 1.48 OD450
- OD450 [3]: 1.43 OD450 and 1.27 OD450 and 1.53 OD450
- OD450 [4]: 1.38 OD450 and 1.29 OD450 and 1.53 OD450
- OD450 [5]: 1.39 OD450 and 1.24 OD450 and 1.51 OD450
- OD450 [6]: 1.41 OD450 and 1.31 OD450 and 1.46 OD450
- OD450 [7]: 1.54 OD450 and 1.45 OD450 and 1.57 OD450

Substance: anti-hel-hIgG1 (negative control antibody against hen egg lysozyme)
- Maximum mean fluorescence intensity [8]: 110
- Maximum mean fluorescence intensity [9]: 103
- Maximum mean fluorescence intensity [10]: 94 and 69
- Maximum mean fluorescence intensity [11]: 86 and 101
- Maximum mean fluorescence intensity [12]: 118
- Maximum mean fluorescence intensity [13]: 81 and 107
- Cell mean fluorescence density [14]: 54.6
- Cell mean fluorescence density [15]: 49
- OD450 [16]: 0.05
- OD450 [17]: 0.07
- OD450 [18]: 0.05
- OD450 [19]: 0.27 and 0.12
- OD450 [20]: 0.06 and 0.17
- OD450 [21]: 0.05
- OD450 [22]: 0.12
- OD450 [23]: 0.06
- OD450 [24]: 0.08
- OD450 [25]: 0.05
- OD450 [26]: 0.05
- OD450 [27]: 0.1
- OD450 [28]: 0.08 and 0.19
- OD450 [29]: 0.08 and 0.18
- OD450 [30]: 0.05
- OD450 [31]: 0.04
- OD450 [32]: 0.05
- OD450 [33]: 0.05
- OD450 [34]: 0.06 and 0.09
- OD450 [35]: 0.06 and 0.17
- OD450 [36]: 0.05
- OD450 [37]: 0.06 and 0.08
- OD450 [38]: 0.08 and 0.09
- OD450 [39]: 0.08 and 0.1
- OD450 [40]: 0.08 and 0.09
- OD450 [41]: 0.08 and 0.09
- OD450 [42]: 0.08 and 0.09
- OD450 [43]: 0.08 and 0.09
- OD450 [44]: 0.08 and 0.09
- OD450 [45]: 0.08 and 0.09
- OD450 [46]: 0.08 and 0.1
- OD450 [47]: 0.09 and 0.14
- OD450 [48]: 0.11 and 0.28
